Experimental data: article PMC9811555 (Current protocols, 2022)
Blank lines part the entries; values can stand above or below the binder they belong to.

Legend:
VHH05-REPTOR-127D01 = target: T1, VHH05-REPTOR-127D01 (VHH05 and 127D01 tags (human UBE2J1 and …, UniProt Q9Y385;P25025)); assay: immunostaining of cells or tissue
T1 chain 1: QADQEAKELARQIS
T1 chain 2: SFEDFWKGED

H2B-mCherry-VHH05 = target: T2, H2B-mCherry-VHH05 (VHH05 tag, identical to a stretch of …, UniProt Q9Y385); assay: far-Western, overlay or dot blot
T2 chain: QADQEAKELARQIS

H2B-mCherry-127D01 = target: T3, H2B-mCherry-127D01 (127D01 tag, identical to a stretch of …, UniProt P25025); assay: far-Western, overlay or dot blot
T3 chain: SFEDFWKGED

binding result (VHH05-REPTOR-127D01): binds | binding result (H2B-mCherry-VHH05): binds
B1: NbVHH05-HA-His (VHH)
VHH: QVQLQESGGGLVQPGGSLRLSCAASGFVFENSAMAWYRQAPGKERELIAVIGTTFIKLAESVKGRFTISRDNAKSTVYLQMNNLKPEDTAVYYCSKSGAYWGQGTQVTVSS

binding result (H2B-mCherry-127D01): binds
B2: Nb127D01-HA-His (VHH)
VHH: EVQLVESGGGLVQAGESLRLSCAASGSTFDFKVMGWYRQPPGKQREGVAAIRLSGNMHYAESVKGRFAISKANAKNTVYLQMNSLRPEDTAVYYCKVNIRGQDYWGQGTQVTVSS

binding result (VHH05-REPTOR-127D01): binds
B3: Nb127D01-ALFA-His (VHH)
VHH: B2 VHH
